The Kd is a measure of binding affinity in units of concentration.

The target of this series is T1, Tbx2 T-box DNA-binding domain, TBX2(94-281) (UniProt Q60707 94-281).
T1 sequence: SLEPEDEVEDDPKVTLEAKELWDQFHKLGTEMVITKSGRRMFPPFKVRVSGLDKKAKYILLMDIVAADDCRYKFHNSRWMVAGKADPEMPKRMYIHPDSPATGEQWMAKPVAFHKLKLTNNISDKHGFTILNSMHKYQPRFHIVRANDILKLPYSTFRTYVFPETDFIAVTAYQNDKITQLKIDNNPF
Kind of series: fluorescence anisotropy; 50 mM HEPES/NaOH pH 7.3, 200 mM NaCl, 25 C, 10 min, 3.33 nM dsDNA probe. As to conditions: protein: recombinant, tags: N-terminal His tag removed by 3C protease (pETM14, NcoI/XhoI), blunt.

B1: T-element (T-box) probe (dsDNA)
DNA 1: AATTTCACACCTAGGTGTGAAATT
DNA 2: AATTTCACACCTAGGTGTGAAATT
Regarding B1, the Kd (label: fluorescein (printed at the 3' end), self-complementary palindrome, 2 copies) was ~602 nM.

B2: E-box probe (dsDNA)
DNA 1: GAGACCACGTGTTGAC
DNA 2: GTCAACACGTGGTCTC
As to B2, the Kd (label: fluorescein on S14 (printed at the 3' end), complement unlabeled) was ~86 nM.
